According to the RNAGym collection of RNA variant scans (doi:10.1073/pnas.2313332121):

B1: TPR t1 (parent)
chain: GACCAAUCUGCCCUCAGAGCUCGAGAACAUCUUCGGAUGCAGAGGAGGCAGGCUUCGGUGGCGCGAUAGCGCCAACGUCCUCAACCUCCAAUGCAUCCCACCACAUGAUGAUGCCUGAAGAGCCUUGGUUUUUUG

Variants of: B1
Experiment: polymerase ribozyme fitness, log enrichment relative to wild type (log ratio); higher = more active; in vitro selection for triplet polymerase activity
Outline: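 PCR was used to build mutant libraries for each subunit of a heterodimeric triplet polymerase ribozyme, which were then transcribed. A single in vitro selection round, in triplicate, used a frozen incubation at −7 °C and recovered extended constructs by gel excision, streptavidin beads and RT-PCR. Fitness is the logarithm of genotype enrichment relative to wild-type enrichment, averaged over replicates with inverse-variance weights. The logarithm is base 2, and after Illumina sequencing only genotypes with ≥10 input reads and ≥1 read per output were kept.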

Row | Variant | polymerase ribozyme fitness (log ratio)
1 | A43G G48U C114U | -2.07
2 | A43U G60A G120C | -1.01
3 | G44U A95C | -2.44
4 | G45A G51A C79A | -3.77
5 | G44A C72A G117A | -2.9
6 | G44U G71C | -2.58
7 | A43U C70U | -2.1
8 | G45A C115G G127C | -4.31
9 | A43U G63A A95G G122U | -4.37
10 | A43G G44U A46U U133A | -2.67
11 | A43C U87C | -1.86
12 | A43U G61U | -2.41
13 | A43U G61C | -4.42
14 | A43U A75U U126G | -3.5
15 | G44A G60C C124A | 0.703
16 | G44A G47U U78C G110A | -3.74
17 | G45C C56A C98U | -3.15
18 | G44A G51A C104U C115G A121C C124A | -5.73
19 | G45U A83C G93U U116C C123G | -4.31
20 | G45A C72A G117U | -2.7
21 | G44A C49U C76G C88G | -3.44
22 | A43U A74C | -1.55
23 | G44C C53A C88U A100U | -0.527
24 | G44U G120U | -0.505

Row | Variant | polymerase ribozyme fitness (log ratio)
25 | G45U A46U C56A G93A | -4
26 | A43U G44A G61C A84C A90U C102U C123U | -4.59
27 | G45C U55G G69U G107A | -5.92
28 | G45U C73A A95U | -1.21
29 | G45A A108G | -2.36
30 | G45A A50G G52A G61U U131G | -3.62
31 | G44A C89U C123U C124U | 1.33
32 | G44C C62G U132A | -2.39
33 | A43U G60C C82G | -4.23
34 | G44U C82U C89A C124A | 1.91
35 | G45A A95C A111U | -3.67
36 | G44C C72A | -0.169
37 | A43U G48U G120U | -2.2
38 | A43U G117U | -3.35
39 | G44U C49A G110A | -3.22
40 | A43G C64U C82G C114U A119G U131A | -1.99
41 | A43C U112A G127C | -2.51
42 | G45A U54A G61C | -0.932
43 | A43G U78A C88U U109G | -7.02
44 | G45C G57C U59A G120A | -0.07
45 | A43U C49A C89U A90C U133G | -1.26
46 | A43U C49G | -3.61
47 | G44C A50G A111U C123A G135U | -5.29
48 | G44A G61U C88G | -2.64

Row | Variant | polymerase ribozyme fitness (log ratio)
49 | G45U C72A U81C A84C C104U G110U U131C | -4.32
50 | G45U A46G G69A U106A | -3.18
51 | G45U A84C U96A G110A U131A | -3.98
52 | G45U C53U | -2.81
53 | G44U C62A A90G | -2.16
54 | G44A G71C U125A U129C | -4.8
55 | G45A A111C | -0.541
56 | A43U A46U U106A U131A | -2.17
57 | G45U G47A G63U C82G G93U G117C A119G | -7.49
58 | G44A U78C | -1.33
59 | A43U A46G C62G U106A | -5.98
60 | G44C C94U | -1.02
61 | G44U C73U G113C A121G G128A | -4.53
62 | G44U G63A U78A G117C | -6.55
63 | G45A C73A U133G | -0.489
64 | G45C G65U G71A A74G | -5.88
65 | G44C C53G | -1.05
66 | G44A C82A | -1.69
67 | G45A A46U | -1.72
68 | A43U C102A | -4.93
69 | G45A G63C C82U | -0.994
70 | G45A C70G C85A | -4.9
71 | A43C U112A G113C | -1.28
72 | G45C U133G G135U | -1.52

Row | Variant | polymerase ribozyme fitness (log ratio)
73 | A43G G61U C94G A103U C114G | -5.99
74 | G44U G117U | -3.54
75 | A43U U112C A119U | -0.989
76 | G44C C88G | -2.18
77 | G44U G110C | -3.92
78 | G44A G60A | -0.624
79 | G45U A46C A91C | -2.71
80 | G45A C89U | -1.44
81 | A43G G61A G65U | -5.48
82 | G44C G69A U116C C123U | -5.92
83 | G45A G61C U81G | -6.11
84 | A43G C73G U78A A111G | -3.33
85 | G45A C53U | -1.11
86 | G44A A119U | -0.987
87 | G44U C94A | -2.53
88 | G44U C94G | -3.91
89 | G45A U59A C64U G128U | -2.82
90 | G44U A91C G93A | -1.99
91 | G45A U106A A111G | -1.55
92 | G44C C114A | -2.01
93 | A43U G63C G117C | -4.52
94 | G44C C86G | -1.54
95 | G44U C70A C73U | -2.95
96 | G45U G48A U132C | -1.5

Row | Variant | polymerase ribozyme fitness (log ratio)
97 | G45U C53U U130A | -1.99
98 | A43G A46U G63U U87A U92G G120C U130C | -6
99 | A43U G44A C76G A111C | -2.36
100 | G45C C99U | -4.05
101 | G44C G71U A108U G110C U125A | -6.18
102 | A43G G58C G60A | -2.53
103 | A43C U78A C82A | -3.68
104 | G44A G122A G128C | -3.84
105 | A43G G107A | -6.28
106 | A43U A46G U96G U112A G128A | -3.6
107 | A43G A50U | -3.81
108 | A43U U87A G110A | -4.16
109 | G44U U92A | -3.67
110 | G44U C70A U129A U131A | -3.71
111 | G45A G61U U130G | -0.472
112 | A43U U132A | -1.08
113 | A43G G47C C64U C86G U125G G127C | -3.04
114 | G44A G71A | -2.54
115 | G45U C70U C85U C89A C104U | -5.61
116 | A43U C56A C115U | -2.52
117 | G45U C72U C88U G113U U129A | -5.57
118 | G44C G63A | 0.0487
119 | G45U C98A | -6.01
120 | G44C U54A C82U C114G | -4.01

Row | Variant | polymerase ribozyme fitness (log ratio)
121 | G44A C49A C73U U116C | -2.91
122 | G44U G69U | -0.207
123 | G44U U78C A108G | -4.95
124 | G45C C49G U59G C89U | -3.44
125 | G44A A50G C72A C73U G110A | -4.26
126 | G44C G51U G60U C123U | -2.6
127 | A43G C53A | -2.39
128 | A43U C73U C86U U125G | -2.65
129 | G45U C49A C88U A105U G128A | -4.94
130 | G44A A111C U131G | -2.35
131 | G44C G61C A100C U106A | -4.28
132 | G44C G47C G63C C89U U132A | -4.25
133 | A43U C104U | -0.812
134 | G44A C72G U112G G117A | -5.1
135 | G45A C70A C115A | -0.928
136 | G44A C49U U106C | -2.86
137 | G45A G58A A111C A118C | -0.455
138 | G45U C64U U96A G110A G120C | -4.67
139 | A43U C56G G63A | -5.13
140 | G45A G52C C72A C123G | 0.812
141 | G45A U87G | -0.388
142 | G44C C53G C73U C82U C99G C124G | -7.17
143 | A43G G110A | -3.34
144 | G44A C86A C89U C115G C123A | -2.79

Row | Variant | polymerase ribozyme fitness (log ratio)
145 | G45A A46G A50C C89A | -3.72
146 | G44U C98U | -2.19
147 | G44A G93U C124G | 0.0379
148 | G45A C76U C86G | -3.23
149 | G44U G93U G117A | -3.24
150 | G44A G77A U106C G117A | -3.03
151 | A43G C86U A91U C101U U131A | -1.79
152 | G44A A50G C73U C102A C115G | -5.62
153 | G45U C72G C89G | -3.39
154 | G45C C56G C89A | -2.69
155 | G45C A84G U87G | -3.02
156 | G45A U112A | 1.41
157 | G45U C115A G128U | -4.73
158 | A43G C53A C89G C97G C123G | -5.57
159 | G44C G61A A95U G110A | -1.72
160 | G44U G71A U130G | -3.31
161 | A43U A50C G77A U126C | -3.5
162 | A43U C115U | -1.87
163 | G44A G113A | -2.35
164 | G44C G47C C49U C97A C123U | -6.09
165 | G44A C49A C76A U106A | -3.36
166 | G44A G52U | -2.04
167 | A43G A103C A119G A121G G122U G135U | -4.67
